The text below walks through data of patent US20230124851A1 (INHIBRX LNC, published 2023).

Where only a bound is given, the exact number is not on record here.

Assay [1] deals with T1, human B7H3 (CD276) on the cell surface (human, UniProt Q5ZPR3 29-534).
T1 construct: B7H3 on A375 and other B7H3-positive or transfected cells
T1 sequence: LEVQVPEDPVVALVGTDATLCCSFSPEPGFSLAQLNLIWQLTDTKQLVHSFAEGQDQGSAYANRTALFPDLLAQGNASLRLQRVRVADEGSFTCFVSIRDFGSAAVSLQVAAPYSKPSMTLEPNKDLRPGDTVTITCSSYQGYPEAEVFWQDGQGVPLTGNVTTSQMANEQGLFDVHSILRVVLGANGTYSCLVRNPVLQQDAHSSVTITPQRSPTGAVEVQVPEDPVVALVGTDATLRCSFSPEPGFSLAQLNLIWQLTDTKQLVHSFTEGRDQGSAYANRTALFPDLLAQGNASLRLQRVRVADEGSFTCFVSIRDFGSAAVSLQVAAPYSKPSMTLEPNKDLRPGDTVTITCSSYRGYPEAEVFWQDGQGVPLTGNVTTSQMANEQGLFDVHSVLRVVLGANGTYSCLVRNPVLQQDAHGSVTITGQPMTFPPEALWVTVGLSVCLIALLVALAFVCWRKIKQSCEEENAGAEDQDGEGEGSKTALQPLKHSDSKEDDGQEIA
The assay is described as follows: flow cytometry on A375 cells (B7H3+), anti-human Fc secondary. The method, then: (§1) Binding of exemplary multispecific constructs containing an antigen-binding domain directed against B7H3 were assessed for binding to B7H3 positive A375 tumor cells or primary T-cells. The constructs were generated containing antigen-binding domain(s) that were either sdAbs or a FABs, and that were positioned either only N-terminal to the Fc or both N-terminal to the Fc and C-terminal to the anti-CD3 binding domain (see FIGS. 30A and 30C and Table E5). Among the various formats of constructs tested included: sdAb-Fc-dsFV-sdAb (cx3072, cx5952) sdAb-Fc-FV (cx6079), sdAb-Fc-dsFV (cs6080, cx6081), MAB-FV (cx5067) and MAB-dsFV (cx6083, cx6084), where the FV represents the anti-CD3 binding domain composed of VH and VL domain pairs and “ds” notes disulfide stabilized via an engineered interdomain disulfide bond.
(§2) Binding was assessed as described above via flow cytometry using a fluorophore-conjugated anti-human Fc secondary antibody. cx3072 bound to A375 cells with high affinity (FIG. 31A) but not to isolated T-cells (FIG. 31B). […] The B7H3 -targeting sdAb containing constructs (cx5952, cx6079, cx6080, and cx6081) bound to B7H3 positive cells with similar affinities (depicted in FIG. 31E), with cx5952 displaying higher maximal binding. cx6079, cx6080 and cx6081 contain two identical B7H3-targeting sdAbs, whereas cx5952, and cx3072 contain two distinct B7H3-targeting sdAb that bind different epitopes. The MAB-FV, cx5067, contains two identical B7H3-targeting FAB domains.
In general terms: A flow cytometer gives signals particle by particle.

Assay [2] addresses T2, CD3 on the surface of human T cells (human, UniProt P07766 23-207).
T2 construct: whole, on cells; Part of the CD3/TCR complex on cells; also called CD3 epsilon
The assay is described as follows: flow cytometry on primary human T cells, anti-human Fc secondary. The method, then:
as §1, §2

For assay [3], the target named is T2, CD3 on the surface of human T cells. The assay is described as follows: flow cytometry on primary human T cells; column head 'Affinity CD3'. The method, then: (§3) Binding of exemplary B7H3-targeting constrained CD3 engaging constructs set forth in Table E3 to CD3 on the surface of primary T cells or B7H3-expressing cells (A375) was assessed by flow cytometry. The T cells were primary T-cells that were negatively enriched from PBMCs isolated from healthy human donor peripheral blood leukopaks. Bound construct was detected with fluorophore-conjugated secondary antibodies specific for the human Fc (anti-human IgG APC secondary antibody) and binding was measured by flow cytometry. Cells incubated with secondary antibody only served as negative controls. Binding was compared to Dual-affinity Re-targeting Antibody (DART)-monomeric Fc format targeting B7H3 and CD3 (DART-Fc B7H3xCD3; see e.g. WO2017030926A1).
(§4) Table E4 summarizes the affinity of exemplary molecules for B7H3 or CD3, as determined from flow cytometry, in these studies.

In assay [4] the target is T1, human B7H3 (CD276) on the cell surface. Description: flow cytometry titration on A375 cells (B7H3+); column head 'Affinity B7H3' (apparent). The method, then:
as §3, §4

T2 sequence (P07766 23-207): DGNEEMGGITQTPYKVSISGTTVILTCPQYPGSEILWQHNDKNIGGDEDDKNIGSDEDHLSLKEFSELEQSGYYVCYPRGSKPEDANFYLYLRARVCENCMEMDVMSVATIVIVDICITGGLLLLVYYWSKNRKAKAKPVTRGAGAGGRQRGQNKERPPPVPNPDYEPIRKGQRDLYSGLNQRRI

B1: cx6079 (bispecific antibody)
chain 1: EVQLVESGGGEVQPGGSLRLSCAASGFSFSSNVMMWVRQAPGKGLEWVSTIYSSGTGTFYAESVKGRFTISRDNAKNTLYLQMSSLRPEDTAVYYCATSGPVRGWGPRSQGTLVTVKPPGGGGDKTHTCPPCPAPPVAGPSVFLFPPKPKDTLMISRTPEVTCVVVDVKHEDPEVKFNWYVDGVEVHNAKTKPREEEYNSTYRVVSVLTVLHQDWLNGKEYKCKVSNKALPAPIEKTISKAKGQPREPQVYTLPPSREEMTKNQVSLTCDVSGFYPSDIAVEWESDGQPENNYKTTPPVLDSDGSFFLYSKLTVDKSRWEQGDVFSCSVMHEALHNHYTQKSLSLSPGKGGGGSGGGGSGGGGSEVQLVESGGGLVQPGGSLRLSCAASGFTFSTYAMNWVRQAPGKGLEWVGRIRSKYNNYATYYADSVKGRFTISRDDSKNTLYLQMNSLRAEDTAVYYCVRHGNFGDSYVSWFAYWGQGTLVTVSS
chain 2: EVQLVESGGGEVQPGGSLRLSCAASGFSFSSNVMMWVRQAPGKGLEWVSTIYSSGTGTFYAESVKGRFTISRDNAKNTLYLQMSSLRPEDTAVYYCATSGPVRGWGPRSQGTLVTVKPPGGGGDKTHTCPPCPAPPVAGPSVFLFPPKPKDTLMISRTPEVTCVVVDVKHEDPEVKFNWYVDGVEVHNAKTKPREEQYNSTYRVVSVLTVLHQDWLNGKEYKCKVSNKALPAPIEKTISKAKGQPREPQVYTLPPSREQMTKNQVKLTCLVKGFYPSDIAVEWESNGQPENNYKTTPPVLDSDGSFFLYSKLTVDKSRWQQGNVFSCSVMHEALHNHYTQKSLSLSPGKGGGGSGGGGSGGGGSQAVVTQEPSLTVSPGGTVTLTCGSSTGAVTTSNYANWVQQKPGKSPRGLIGGTNKRAPGVPARFSGSLLGGKAALTISGAQPEDEADYYCALWYSNHWVFGGGTKLTVL
notes: also called sdAb-Fc-FV
On to B1, for which the binding result in assay [1] is given as “binds”; in assay [2], “no binding”.

B2: cx3855 (bispecific antibody)
chain 1: EVQLVESGGGEVQPGGSLRLSCAASGSTFSSYHMSWFRQAPGKQREPVATSHHGGTTNYAGSVKGRFTISRDNAKNTVYLQMNTLRAEDTAVYYCKADHGYQGRGYWGQGTLVTVKPDKTHTCPPCPAPGGPSVFLFPPKPKDTLMISRTPEVTCVVVDVSHEDPEVKFNWYVDGVEVHNAKTKPREEQYNSTYRVVSVLTVLHQDWLNGKEYKCKVSNKALPAPIEKTISKAKGQPREPQVYTLPPCRDELTKNQVSLWCLVKGFYPSDIAVEWESNGQPENNYKTTPPVLDSDGSFFLYSKLTVDKSRWQQGNVFSCSVMHEALHNHYTQKSLSLSPTGGSGGGGIEPDIGGSGGSEVQLVESGGGLVQPGGSLRLSCAASGFTFNTYAMNWVRQAPGKCLEWVARIRSKYNNYATYYADSVKGRFTISRDDAKNTLYLQMSSLRAEDTAVYYCVRHGNFGNSYVSWFAYWGQGTLVTVKPEVQLVESGGGEVQPGGSLRLSCAASGSTFSSYHMSWFRQAPGKQREPVATSHHGGTTNYAGSVKGRFTISRDNAKNTVYLQMNTLRAEDTAVYYCKADHGYQGRGYWGQGTLVTVKP
chain 2: DKTHTCPPCPAPGGPSVFLFPPKPKDTLMISRTPEVTCVVVDVSHEDPEVKFNWYVDGVEVHNAKTKPREEQYNSTYRVVSVLTVLHQDWLNGKEYKCKVSNKALPAPIEKTISKAKGQPREPQVCTLPPSRDELTKNQVSLSCAVKGFYPSDIAVEWESNGQPENNYKTTPPVLDSDGSFFLVSKLTVDKSRWQQGNVFSCSVMHEALHNRYTQKSLSLSPTGGSGGGGIEPDIGGSGGSQAVVTQEPSLTVSPGGTVTLTCGSSTGAVTTSNYANWVQQKPGQAFRGLIGGTNKRAPGVPARFSGSLLGGKAALTISGAQPEDEADYYCALWYSNHWVFGCGTKLTVLEVQLLESGGGEVQPGGSLRLSCAASGFSFSINAMGWYRQAPGKRREFVAAIESGRNTVYAESVKGRFTISRDNAKNTVYLQMSSLRAEDTAVYYCGLLKGNRVVSPSVAYWGQGTLVTVKP
notes: chain 2 ends in the 4-1BB sdAb RH3v5-1; Printed composition is the same as cx4904
B2: the results for the Kd in assay [3] and in assay [4] were over 200 nM and 0.395 nM, respectively.

B3: cx3243 (bispecific antibody, not shown: a dimerising Fc or GST)
chain 1: EVQLVESGGGEVQPGGSLRLSCAASGSTFSSYHMSWFRQAPGKQREPVATSHHGGTTNYAGSVKGRFTISRDNAKNTVYLQMNTLRAEDTAVYYCKADHGYQGRGYWGQGTLVTVKPGGGGGSGGGGGSGGGGGSEVQLVESGGGLVQPGGSLRLSCAASGFTFNTYAMNWVRQAPGKCLEWVARIRSKYNNYATYYADSVKGRFTISRDDAKNTLYLQMSSLRAEDTAVYYCVRHGNFGNSYVSWFAYWGQGTLVTVKPEVQLVESGGGEVQPGGSLRLSCAPSERTFSTYTMGWFRQAPGKEREFVAVVNWGGGSKYYAESVKGRFTISRDNAKNTVYLQMSSLRAEDTAVYYCAAGGAYSGPYYDTRQYTYWGQGTLVTVKP
chain 2: GGGGGSGGGGGSGGGGGSQAVVTQEPSLTVSPGGTVTLTCGSSTGAVTTSNYANWVQQKPGQAFRGLIGGTNKRAPGVPARFSGSLLGGKAALTISGAQPEDEADYYCALWYSNHWVFGCGTKLTVLEVQLLESGGGEVQPGGSLRLSCAASGFSFSINAMGWYRQAPGKRREFVAAIESGRNTVYAESVKGRFTISRDNAKNTVYLQMSSLRAEDTAVYYCGLLKGNRVVSPSVAYWGQGTLVTVKP
notes: chain 2 ends in the 4-1BB sdAb RH3v5-1
Turning to B3, the Kd is over 200 nM in assay [3] and 0.477 nM in assay [4].

B4: cx5952 (bispecific antibody)
chain 1: EVQLVESGGGEVQPGGSLRLSCAASGFSFSSNVMMWVRQAPGKGLEWVSTIYSSGTGTFYAESVKGRFTISRDNAKNTLYLQMSSLRPEDTAVYYCATSGPVRGWGPRSQGTLVTVKPPGGGGDKTHTCPPCPAPGGPSVFLFPPKPKDTLMISRTPEVTCVVVDVSHEDPEVKFNWYVDGVEVHNAKTKPREEQYNSTYRVVSVLTVLHQDWLNGKEYKCKVSNKALPAPIEKTISKAKGQPREPQVYTLPPCRDELTKNQVSLWCLVKGFYPSDIAVEWESNGQPENNYKTTPPVLDSDGSFFLYSKLTVDKSRWQQGNVFSCSVMHEALHNHYTQKSLSLSPGGGGGGSGGGGGSGGGGGSEVQLVESGGGLVQPGGSLRLSCAASGFTFNTYAMNWVRQAPGKCLEWVARIRSKYNNYATYYADSVKGRFTISRDDAKNTLYLQMSSLRAEDTAVYYCVRHGNFGNSYVSWFAYWGQGTLVTVKPGGGGEVQLVESGGGEVQPGGSLRLSCAASGFTFSSYHMSWFRQAPGKQRELVATSHHGGTTNYAGSVKGRFTISRDNAKNTVYLQMNTLRAEDTAVYYCKADHGYQGRGYWGQGTLVTVKP
chain 2: DKTHTCPPCPAPGGPSVFLFPPKPKDTLMISRTPEVTCVVVDVSHEDPEVKFNWYVDGVEVHNAKTKPREEQYNSTYRVVSVLTVLHQDWLNGKEYKCKVSNKALPAPIEKTISKAKGQPREPQVCTLPPSRDELTKNQVSLSCAVKGFYPSDIAVEWESNGQPENNYKTTPPVLDSDGSFFLVSKLTVDKSRWQQGNVFSCSVMHEALHNRYTQKSLSLSPGGGGGGSGGGGGSGGGGGSQAVVTQEPSLTVSPGGTVTLTCGSSTGAVTTSNYANWVQQKPGQAFRGLIGGTNKRAPGVPARFSGSLLGGKAALTISGAQPEDEADYYCALWYSNHWVFGCGTKLEIK
notes: also called sdAb-Fc-dsFV-sdAb
On to B4, for which the figures for the binding result in assay [1] and in assay [2] were “binds” and “no binding”, respectively.
